Measurements from PMC8569915 (ChemSusChem, 2021).

Molecular target: the molecule itself
Assay: SEC

B1: [2SCC-(I9CL12C)2] (peptide)
chain: Ac-GIAALEQKCAACEEKNAALEWKIAALEKKG-NH2
modifications: cysteine pairing not given here
- stoichiometry N: 2
